Consider 18 sequences from the supplement of paper PMC12764529.

Data set [1] in a line: folding stability dG unfold (combined trypsin and chymotrypsin); higher = more stable. In a few lines:
(§1)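 Unfolding free energy was derived, per protease or combined, against a sequence-predicted unfolded-state K50 and a shared folded-state K50, starting from K50 inferred by Bayesian fitting of sequencing counts. Digestion with trypsin and chymotrypsin was carried out on designed mini-proteins under 80 residues without cysteine in a PA-tagged cDNA display construct. Only designs with AlphaFold2 dimer inter-PAE above 15 were kept.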

The nature of data set [2]: folding stability dG unfold from trypsin proteolysis; higher = more stable. In a few lines: as §1
Data set [3] in a line: folding stability dG unfold from chymotrypsin proteolysis; higher = more stable. The procedure, abridged: as §1

± gives the half width of the 95% confidence interval.

Consider “SAGGSAGGSAGGSMITIEVTTPTEKHTIEVPEDEVPEEELIERAKKLFPDVEKITILKESAGGSAGGSAGGS [r4_235_JUSTAS]”, for which the “folding stability dG unfold” value in data set [1] amounted to 0.636 ± 0.08 kcal/mol; in data set [2] it was 0.65 ± 0.037 kcal/mol; in data set [3], 0.613 ± 0.059 kcal/mol.
For “SAGGSAGGSAGGSMIVVPVTSNEVVDNLGGPVTVPAGTVIIIERTENSVKVEVLPPEKLSAGGSAGGSAGGS [r10_353_JUSTAS]” the same measures were 0.643 ± 0.11 kcal/mol, 0.917 ± 0.048 kcal/mol and 0.353 ± 0.019 kcal/mol.
On to “SAGGSAGGSAGGSMKEVTITLTDPETGKVSTLVLKLSPEEIEKAAEELAKSSGKKVTIRSAGGSAGGSAGGS [r4_301_JUSTAS]”, for which the figures for the “folding stability dG unfold” value in data set [1], in data set [2] and in data set [3] were 1.78 ± 0.13 kcal/mol, 1.04 ± 0.068 kcal/mol and 1.99 ± 0.066 kcal/mol, respectively.
The like results for “SAGGSAGGSAGGSMKIEIVTNDPKKAEEIKEKLEKEGYPKKKNPINIEVKEISEEELLKSAGGSAGGSAGGS [r4_281_JUSTAS]” were, in that order, 0.533 ± 0.16 kcal/mol, -0.113 ± 0.085 kcal/mol and 0.628 ± 0.053 kcal/mol.
The like results for “SAGGSAGGSAGGSMLPPDTTVTSTTFLPNGTVVNTTTTYTATPDDTYTVTTTTTTTPLTSSAGGSAGGSAGG [r7_249_JUSTAS]” were, in that order, 0.766 ± 0.11 kcal/mol, 0.765 ± 0.037 kcal/mol and 0.631 ± 0.16 kcal/mol.
For “SAGGSAGGSAGGSMLVELDENGKTLTIYDEETQELIEVEVEPAPPVEETVTEVSEEELKSAGGSAGGSAGGS [r4_56_TrROS_Hall]”, the “folding stability dG unfold” value was 0.375 ± 0.26 kcal/mol in data set [1], 0.666 ± 0.098 kcal/mol in data set [2] and 0.000558 ± 0.08 kcal/mol in data set [3].
The like results for “SAGGSAGGSAGGSMPENLVTITTETTVVKSPLANPVNESPVWEVEVISSPVTVVPPSLLSAGGSAGGSAGGS [r4_417_JUSTAS]” were, in that order, 0.812 ± 0.1 kcal/mol, 1.25 ± 0.087 kcal/mol and 0.0877 ± 0.12 kcal/mol.
The like results for “SAGGSAGGSAGGSMSGVFSTETVFLEKTLPDGSRVEALTTIETYLPLPPLPPFKFPSAVSAGGSAGGSAGGS [r4_325_JUSTAS]” were, in that order, 0.437 ± 0.26 kcal/mol, 0.13 ± 0.1 kcal/mol and 0.415 ± 0.13 kcal/mol.
The like results for “SAGGSAGGSAGGSMSSSSSPLPDEDGLVTRGKSSEPSPPFTWTTTVDSSGVPSTTVTSLESAGGSAGGSAGG [r7_187_JUSTAS]” were, in that order, 0.323 ± 0.07 kcal/mol, -0.484 ± 0.1 kcal/mol and 0.602 ± 0.051 kcal/mol.
For the sequence “SAGGSAGGSAGGSMTITYDKENKTLTIKLPNGKKVLTVNLENMTPEQLKELAKKLGLEVSAGGSAGGSAGGS [r4_49_TrROS_Hall]”, the “folding stability dG unfold” value is 3.44 ± 0.11 kcal/mol in data set [1], 3.18 ± 0.2 kcal/mol in data set [2] and 3.62 ± 0.076 kcal/mol in data set [3].
Take “SAGGSAGGSAGGSMTTVTLPDAVSTNVTTTKLPDNTTKVDITTTFPDGSTRSSTITINPSAGGSAGGSAGGS [r4_452_JUSTAS]”: the figures for the “folding stability dG unfold” value in data set [1], in data set [2] and in data set [3] were 0.908 ± 0.07 kcal/mol, -0.305 ± 0.049 kcal/mol and 1.32 ± 0.05 kcal/mol, respectively.
For “SAGGSAGGSAGGSMTVTLSREELLRLLGVPPGVPIPESVLAKIKSIETLPDGSVTVTIGSAGGSAGGSAGGS [r4_369_JUSTAS]” the same measures were 2.74 ± 0.11 kcal/mol, 1.98 ± 0.027 kcal/mol and 3.118 ± 0.027 kcal/mol.
Consider “SAGGSAGGSAGGSMTVTVTLKDGSTRTFAVPADAPLTLEQLEAAGYPAADIAEVTVTAESAGGSAGGSAGGS [r10_565_JUSTAS]”, for which the results for the “folding stability dG unfold” value in data set [1], in data set [2] and in data set [3] were 2.96 ± 0.038 kcal/mol, 1.88 ± 0.049 kcal/mol and 3.292 ± 0.021 kcal/mol, respectively.
For “SAGGSAGGSAGGSMVKVEKNGEGVVTTTTKYFFYPSTGKWSSETITTTKKVPKDEPFPLSAGGSAGGSAGGS [r4_215_JUSTAS]” the same measures were -0.0856 ± 0.23 kcal/mol, -0.159 ± 0.14 kcal/mol and -0.0539 ± 0.33 kcal/mol.
For “SAGGSAGGSAGGSNDNVVPITILFVDPGKDDRLYLREIRLRIYENGDIEAEVKVYELPLSAGGSAGGSAGGS [r10_598_TrMRF]” the same measures were 3.68 ± 0.1 kcal/mol, 2.87 ± 0.11 kcal/mol and 4.12 ± 0.075 kcal/mol.
“SAGGSAGGSAGGSPDGWKFKMEMFTVKVPGAKITIPDGKSITLPPGKEVTIMIMTYVPPSAGGSAGGSAGGS [r4_26_TrROS]”: the “folding stability dG unfold” value in data set [1] was 3.47 ± 0.092 kcal/mol; in data set [2], 2.25 ± 0.068 kcal/mol; in data set [3] it was 3.81 ± 0.086 kcal/mol.
For “SAGGSAGGSAGGSPGNYREVEIEFRDPDDNGKEVKIEIWVQPGMPEEQIKEFVRELLRRSAGGSAGGSAGGS [r4_442_TrROS]” the same measures were 1.32 ± 0.25 kcal/mol, 0.942 ± 0.18 kcal/mol and 1.4 ± 0.19 kcal/mol.
On to “SAGGSAGGSAGGSPKVYVELRFKLPNNLYVEIRYEIDPEKPGYVDWEVRLFDENGNPLGSAGGSAGGSAGGS [r4_297_TrMRF]”, for which the “folding stability dG unfold” value in data set [1] was found to be 4.56 ± 0.16 kcal/mol; in data set [2] it was 3.61 ± 0.23 kcal/mol; in data set [3], 4.74 ± 0.096 kcal/mol.
